Experimental data: patent US20230406921A1 (MABWELL SHANGHAI BIOSCIENCE, published 2023)
Positions count from the first letter of the chain named.

B1: h140Hm13/h140Lm17 (antibody, V domains shown)
VH: EVQLVQSGAEVKKPGASVKVSCKASGYKFTNYVMSWVRQAPGQRLEWMGYINPYNDAIKYNEKFTGRVTITRDTSASTAYMELSSLRSEDTAVYYCAREGDFYANYGRLGFAYWGQGTLVTVSS
VL: DIQMTQSPSSLSASVGDRVTITCRASQDITNYLNWYQQKPGKAPKLLIYYTSRLQSGVPSRFSGSGSGTDYTFTISSLQPEDIATYFCQQGDTEPYTFGGGTKVEIK
B2: h140Hm13/h140Lm18 (antibody, V domains shown)
VH: B1 VH
VL: B1 VL with E94N
B3: anti-human CD47/PD-L1 bispecific antibody 2MW1531-m5 (bispecific antibody)
heavy 1: EVQLVQSGAEVKKPGASVKVSCKASGYKFTNYVMSWVRQAPGQRLEWMGYINPYNDAIKYNEKFTGRVTITRDTSASTAYMELSSLRSEDTAVYYCAREGDFYANYGRLGFAYWGQGTLVTVSSASTKGPSVFPLAPCSRSTSESTAALGCLVKDYFPEPVTVSWNSGALTSGVHTFPAVLQSSGLYSLSSVVTVPSSSLGTQTYTCNVDHKPSNTKVDKRVESKYGPPCPPCPAPEFLGGPSVFLFPPKPKDTLMISRTPEVTCVVVDVSQEDPEVQFNWYVDGVEVHNAKTKPREEQYNSTYRVVSVLTVLHQDWLNGKEYKCKVSNKGLPSSIEKTISKAKGQPREPQVYTLPPSQKEMTKNQVSLTCLVKGFYPSDIAVEWESNGQPENNYKTTPPVLDSDGSFFLYSKLTVDKSRWQEGNVFSCSVMHEALHNRYTQKSLSLSLGK
heavy 2: EVQLVQSGAEVKKPGATVKISCKVSGFNIKDIYMHWVQQAPGKGLEWMGRIDPANANTKYDPKFQDRVTITADTSTNTAYMELSSLRSEDTAVYYCASGQLGPLGFDYWGQGTTVTVSSASTKGPSVFPLAPCSRSTSESTAALGCLVKDYFPEPVTVSWNSGALTSGVHTFPAVLQSSGLYSLSSVVTVPSSSLGTQTYTCNVDHKPSNTKVDKRVESKYGPPCPPCPAPEFLGGPSVFLFPPKPKDTLMISRTPEVTCVVVDVSQEDPEVQFNWYVDGVEVHNAKTKPREEQYNSTYRVVSVLTVLHQDWLNGKEYKCKVSNKGLPSSIEKTISKAKGQPREPQVYTLPPSQEEMTKNQVSLTCLVKGFYPSDIAVEWESNGQPENNYKTTPPVLDSDGSFFLYSKLTVDKSRWQEGNVFSCSVMHEALHNHYTQESLSLSLGK
VL: DIQMTQSPSSLSASVGDRVTITCRASQDISNYLNWYQQKPGKAPKLLLYYTSRLHSGVPSRFSGSGSGTDYTLTISSLQPEDFATYFCQQGDGRPYTFGGGTKVEIKRTVAAPSVFIFPPSDEQLKSGTASVVCLLNNFYPREAKVQWKVDNALQSGNSQESVTEQDSKDSTYSLSSTLTLSKADYEKHKVYACEVTHQGLSSPVTKSFNRGEC
notes: Knobs-into-holes with a common light chain
B4: anti-human CD47/PD-L1 bispecific antibody 2MW1531-m2 (bispecific antibody)
heavy 1: B3 heavy 1
heavy 2: B3 heavy 2
VL: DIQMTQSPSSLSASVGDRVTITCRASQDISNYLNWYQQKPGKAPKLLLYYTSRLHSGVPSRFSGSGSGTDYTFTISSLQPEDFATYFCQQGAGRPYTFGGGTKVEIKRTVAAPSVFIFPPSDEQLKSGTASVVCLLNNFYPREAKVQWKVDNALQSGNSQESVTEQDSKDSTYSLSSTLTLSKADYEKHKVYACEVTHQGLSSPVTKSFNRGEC
notes: as for B3
B5: anti-human CD47/PD-L1 bispecific antibody 2MW1531-m4 (bispecific antibody)
heavy 1: B3 heavy 1
heavy 2: B3 heavy 2
VL: B3 VL with S30T, D92A
notes: as for B3
B6: anti-human CD47/PD-L1 bispecific antibody 2MW1531-m1 (bispecific antibody)
heavy 1: B3 heavy 1
heavy 2: B3 heavy 2
VL: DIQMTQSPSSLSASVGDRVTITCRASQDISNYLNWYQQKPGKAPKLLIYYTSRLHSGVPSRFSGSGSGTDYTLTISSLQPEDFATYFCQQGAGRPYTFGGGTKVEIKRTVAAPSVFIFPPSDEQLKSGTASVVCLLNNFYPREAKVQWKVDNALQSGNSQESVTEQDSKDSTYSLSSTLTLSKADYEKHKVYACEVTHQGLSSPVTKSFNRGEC
notes: as for B3
B7: anti-human CD47/PD-L1 bispecific antibody 2MW1531-p (bispecific antibody)
heavy 1: B3 heavy 1
heavy 2: B3 heavy 2
VL: B1 VL with T30S, I48L, Q55H, F73L, I83F, D92A, T93G, E94R
notes: Knobs-into-holes: heavy chain A hz140-H-A (anti-CD47), heavy chain B hz182-H-B (anti-PD-L1), common light chain
B8: anti-human CD47/PD-L1 bispecific antibody 2MW1531-m7 (bispecific antibody, human IgG4 S228P, kappa)
heavy 1: B3 heavy 1
heavy 2: B3 heavy 2
VL: B3 VL with D92A, R94F
notes: as for B3
B9: hz140-Hm13/hz182-L (antibody, V domains shown)
VH: B1 VH
VL: B1 VL with T30S, I48L, Q55H, F73L, I83F, D92A, T93G, E94R
B10: hz140-Hm13/hz182-Lm7 (antibody, V domains shown)
VH: B1 VH
VL: DIQMTQSPSSLSASVGDRVTITCRASQDISNYLNWYQQKPGKAPKLLLYYTSRLHSGVPSRFSGSGSGTDYTLTISSLQPEDFATYFCQQGAGFPYTFGGGTKVEIKR
B11: hz140-Hm13/hz182-Lm9 (antibody, V domains shown)
VH: B1 VH
VL: B10 VL with A92D, G93T
B12: hz140-Hm13/hz182-Lm4 (antibody, V domains shown)
VH: B1 VH
VL: B10 VL with S30T, F94R
B13: hz140-Hm13/hz182-Lm6 (antibody, V domains shown)
VH: B1 VH
VL: B10 VL with G93T, F94R
B14: hz140-Hm13/hz182-Lm11 (antibody, V domains shown)
VH: B1 VH
VL: B10 VL with F83I, A92D, G93T
B15: hz140-Hm13/hz182-Lm8 (antibody, V domains shown)
VH: B1 VH
VL: B10 VL with F94R, Y96R
notes: also called h182Lmut8
B16: hz140-Hm13/hz182-Lm1 (antibody, V domains shown)
VH: B1 VH
VL: B10 VL with L48I, F94R
notes: also called hz182-Lml
B17: hz140-Hm13/hz182-Lm3 (antibody, V domains shown)
VH: B1 VH
VL: B10 VL with F83I, F94R
B18: hz140-Hm13/hz182-Lm5 (antibody, V domains shown)
VH: B1 VH
VL: B10 VL with A92D, F94R
B19: hz140-Hm13/hz182-Lm10 (antibody, V domains shown)
VH: B1 VH
VL: B10 VL with F83I
B20: hz140-Hm13/hz182-Lm2 (antibody, V domains shown)
VH: B1 VH
VL: B10 VL with L73F, F94R

Target: T1, CD47 on the surface of tumor cells (human, UniProt Q08722 19-323)
T1 construct: whole, on cells; Same protein as m4; also called CD47 antigen on the surface of U937 and CCRF cells; SKOV-3
Assay: FACS, tumor cells, 1 nM
Protocol: (§1) The difference between the binding of the mutant to CD47 on the surface of tumor cells and CD47 on the surface of red blood cells was evaluated.

FACS (MFI)	Binder
11200	B1
9920	B2

Target: T2, CD47 on the surface of human red blood cells (human, UniProt Q08722 19-323)
T2 construct: whole, on cells; Same protein as m3, on red blood cells; also called hRBC; RBC
Assay: FACS, human red blood cells, antibody 1000 nM
Protocol: (§2) In the experiment of analyzing the binding to human red blood cells, the antibody was used at a concentration of 1000 nM; and in the experiment of analyzing the binding to tumor cells, the antibody was used at a concentration of 100 nM.

Binding to human red blood cells (MFI)	Binder
807	B3
799	B4
903	B5
888	B6

Target: T1, CD47 on the surface of tumor cells
Assay: FACS, SKOV-3 tumor cells (no PD-L1), antibody 100 nM
Protocol: as §2

Binding to tumor cells (MFI)	Binder
35400	B7
28200	B8
30900	B3
29900	B4
31100	B5
33300	B6

Target: T3, recombinant antigen of the extracellular region of CD47 (Sino Biological, Cat: 12283-H08H) (human, UniProt Q08722 19-139)
T3 construct: extracellular domain; also called recombinant CD47 extracellular region; CD47 recombinant protein
Assay: Fortebio BLI, antibody on AHC sensor, CD47 extracellular region 100 nM;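 also: antibody held on the sensor through anti-human Fc capture, CD47 antigen in solution, association and dissociation phases each lasting 300 s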
Protocol: The affinity between the obtained mutant antibody and the CD47 recombinant protein was determined by Fortebio. The antibody was immobilized on the surface of a sensor with the anti-human Fc capture antibody (AHC Sensor), and reacted with the recombinant antigen of the extracellular region of CD47 (with a working concentration of 100 nM) in the liquid phase. The duration for binding and dissociation was both 300 seconds. The kinetic parameters were determined.

Kd [nM]	koff [s⁻¹]	kon [M⁻¹ s⁻¹]	Binder
6.2	0.00163	263000	B9

Target: T1, CD47 on the surface of tumor cells
Assay: FACS, tumor cells, 2 nM
Protocol: as §1

FACS (MFI)	Binder
17800	B10
16400	B11
28500	B12
15900	B13
20100	B14
39100	B15
25800	B9
15500	B16
30000	B17
39900	B18
19000	B19
30400	B20

Target: T3, recombinant antigen of the …
Assay: Fortebio BLI

Kd [nM]	koff [s⁻¹]	kon [M⁻¹ s⁻¹]	Binder
8.56	0.00131	153000	B7
62.1	0.00814	131000	B8
10.8	0.00101	93600	B3
81	0.00678	83700	B4
26.5	0.00321	121000	B5
22.5	0.00213	94600	B6

Target: PD-L1 (human, UniProt Q9NZQ7 19-239, limits assumed)
Assay: Fortebio BLI

Chain of PD-L1 (Q9NZQ7 19-239 limits assumed): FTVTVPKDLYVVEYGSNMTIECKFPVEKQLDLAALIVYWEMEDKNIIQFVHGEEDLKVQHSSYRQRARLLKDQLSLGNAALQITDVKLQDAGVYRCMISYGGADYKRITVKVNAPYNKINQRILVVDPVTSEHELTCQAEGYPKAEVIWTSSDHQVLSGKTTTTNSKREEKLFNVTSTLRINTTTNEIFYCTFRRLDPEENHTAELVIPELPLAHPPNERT

Kd [nM]	koff [s⁻¹]	kon [M⁻¹ s⁻¹]	Binder
0.474	0.000147	310000	B7
0.917	0.00021	230000	B8
1.02	0.000357	347000	B3
3.26	0.000696	213000	B4
3.78	0.000707	187000	B5
1.59	0.000387	243000	B6

Target: T2, CD47 on the surface of human red blood …
Assay: FACS, RBC, 200 nM
Protocol: as §1

FACS (MFI)	Binder
349	B10
1750	B11
1840	B12
695	B13
321	B14
40800	B15
2060	B9
2320	B16
874	B17
3310	B18
326	B19
1670	B20

Target: T3, recombinant antigen of the …
Assay: Fortebio BLI, recombinant CD47

Kd [nM]	kon [M⁻¹ s⁻¹]	Binder
16.6	201000	B10
38.9	132000	B11
989	87900	B12
12.5	114000	B13
53.1	103000	B14
12.9	234000	B15
5.97	125000	B9
7.06	134000	B16
16.7	145000	B17
667	79900	B18
5.14	176000	B19
1410	94700	B20
